Measured values published in publication PMC5887372 (Nucleic Acids Research, 2018).
Positions count from the first letter of the chain named. In names and notes the source's numbering stands.

B1: DNMT1_351 (aa: 351–1616) (domain or fragment)
chain: PKCIQCGQYLDDPDLKYGQHPPDAVDEPQMLTNEKLSIFDANESGFESYEALPQHKLTCFSVYCKHGHLCPIDTGLIEKNIELFFSGSAKPIYDDDPSLEGGVNGKNLGPINEWWITGFDGGEKALIGFSTSFAEYILMDPSPEYAPIFGLMQEKIYISKIVVEFLQSNSDSTYEDLINKIETTVPPSGLNLNRFTEDSLLRHAQFVVEQVESYDEAGDSDEQPIFLTPCMRDLIKLAGVTLGQRRAQARRQTIRHSTREKDRGPTKATTTKLVYQIFDTFFAEQIEKDDREDKENAFKRRRCGVCEVCQQPECGKCKACKDMVKFGGSGRSKQACQERRCPNMAMKEADDDEEVDDNIPEMPSPKKMHQGKKKKQNKNRISWVGEAVKTDGKKSYYKKVCIDAETLEVGDCVSVIPDDSSKPLYLARVTALWEDSSNGQMFHAHWFCAGTDTVLGATSDPLELFLVDECEDMQLSYIHSKVKVIYKAPSENWAMEGGMDPESLLEGDDGKTYFYQLWYDQDYARFESPPKTQPTEDNKFKFCVSCARLAEMRQKEIPRVLEQLEDLDSRVLYYSATKNGILYRVGDGVYLPPEAFTFNIKLSSPVKRPRKEPVDEDLYPEHYRKYSDYIKGSNLDAPEPYRIGRIKEIFCPKKSNGRPNETDIKIRVNKFYRPENTHKSTPASYHADINLLYWSDEEAVVDFKAVQGRCTVEYGEDLPECVQVYSMGGPNRFYFLEAYNAKSKSFEDPPNHARSPGNKGKGKGKGKGKPKSQACEPSEPEIEIKLPKLRTLDVFSGCGGLSEGFHQAGISDTLWAIEMWDPAAQAFRLNNPGSTVFTEDCNILLKLVMAGETTNSRGQRLPQKGDVEMLCGGPPCQGFSGMNRFNSRTYSKFKNSLVVSFLSYCDYYRPRFFLLENVRNFVSFKRSMVLKLTLRCLVRMGYQCTFGVLQAGQYGVAQTRRRAIILAAAPGEKLPLFPEPLHVFAPRACQLSVVVDDKKFVSNITRLSSGPFRTITVRDTMSDLPEVRNGASALEISYNGEPQSWFQRQLRGAQYQPILRDHICKDMSALVAARMRHIPLAPGSDWRDLPNIEVRLSDGTMARKLRYTHHDRKNGRSSSGALRGVCSCVEAGKACDPAARQFNTLIPWCLPHTGNRHNHWAGLYGRLEWDGFFSTTVTNPEPMGKQGRVLHPEQHRVVSVRECARSQGFPDTYRLFGNILDKHRQVGNAVPPPLAKAIGLEIKLCMLAKARESASAKIKEEEAAKD
B2: DNMT1 RFTS domain (aa: 351–600) (domain or fragment)
chain: PKCIQCGQYLDDPDLKYGQHPPDAVDEPQMLTNEKLSIFDANESGFESYEALPQHKLTCFSVYCKHGHLCPIDTGLIEKNIELFFSGSAKPIYDDDPSLEGGVNGKNLGPINEWWITGFDGGEKALIGFSTSFAEYILMDPSPEYAPIFGLMQEKIYISKIVVEFLQSNSDSTYEDLINKIETTVPPSGLNLNRFTEDSLLRHAQFVVEQVESYDEAGDSDEQPIFLTPCMRDLIKLAGVTLGQRRAQAR
B3: DNMT1 RFTS domain E397A (domain or fragment)
chain: B2 chain with E47A
B4: UHRF1 UBL domain (aa: 1–76) (domain or fragment)
chain: MWIQVRTMDGRQTHTVDSLSRLTKVEELRRKIQELFHVEPGLQRLFYRGKQMEDGHTLFDYEVRLNDTIQLLVRQS
B5: DNMT1 RFTS domain E384A (domain or fragment)
chain: B2 chain with E34A

Key:
ubiquitin [1] = target: T1, ubiquitin (UniProt P0CG48 1-76); experiment: NMR titration
ubiquitin [2] = target: T1, ubiquitin; experiment: ITC
[3] = target: B2; experiment: ITC
DNMT1 RFTS domain E397A = target: B3; experiment: ITC
DNMT1 RFTS domain Y399G = DNMT1 RFTS domain Y399G (human, UniProt P26358 351-600, Y399G); experiment: ITC
DNMT1 RFTS domain I442G = DNMT1 RFTS domain I442G (human, UniProt P26358 351-600, I442G); experiment: ITC
[4] = target: DNMT1 RFTS domain E384A/E397A (human, UniProt P26358 351-600, E384A | E397A); experiment: ITC
DNMT1 RFTS domain E384A = target: B5; experiment: ITC

Binder: B1
- binding result (ubiquitin [1]): binds

Binder: B2
- Kd (ubiquitin [2]): 26 µM

Binder: B3
- fold reduction of binding against wild-type RFTS (ubiquitin [2]): ~2 fold

Binder: B4
- Kd [3]: 41.3 µM
- binding result (DNMT1 RFTS domain E397A): binds
- binding result (DNMT1 RFTS domain Y399G): binds
- binding result (DNMT1 RFTS domain I442G): binds
- binding result [4]: binds
- binding result (DNMT1 RFTS domain E384A): binds

Binder: B5
- fold reduction of binding against wild-type RFTS (ubiquitin [2]): ~2 fold
